For six molecules, EC50 [nM], 0% HSA and EC50 [nM], 0.1% HSA results are on record in patent US12679878B2, “CRF2 receptor agonists and their use in therapy” (SANOFI, priority 2020, dated 2026).

This experiment concerns the target human corticotropin-releasing factor 2α (CRF2 α receptor) (human), Q13324. As to the kind of experiment: cell-based or functional assay.

Starred links: 1 amine or outer side, 2 acyl side, 3 side chain; linkers in the order of their positions; H or OH if unused. Non-standard residues stand in square brackets, D forms with d. Groups on a side chain read outwards from the residue. No end group written: not given here. *: point of attachment. C18 diacid = O=C(O)CCCCCCCCCCCCCCCCC(=O)*; γGlu = O=C(O)[C@H](CCC(=O)[*:2])N[*:1]; AEEA = NCCOCCOCC(=O)O; Aib = CC(C)(N)C(=O)O

Sequence of human corticotropin-releasing factor 2α (CRF2 α receptor) (human), Q13324 (Q13324 20-411): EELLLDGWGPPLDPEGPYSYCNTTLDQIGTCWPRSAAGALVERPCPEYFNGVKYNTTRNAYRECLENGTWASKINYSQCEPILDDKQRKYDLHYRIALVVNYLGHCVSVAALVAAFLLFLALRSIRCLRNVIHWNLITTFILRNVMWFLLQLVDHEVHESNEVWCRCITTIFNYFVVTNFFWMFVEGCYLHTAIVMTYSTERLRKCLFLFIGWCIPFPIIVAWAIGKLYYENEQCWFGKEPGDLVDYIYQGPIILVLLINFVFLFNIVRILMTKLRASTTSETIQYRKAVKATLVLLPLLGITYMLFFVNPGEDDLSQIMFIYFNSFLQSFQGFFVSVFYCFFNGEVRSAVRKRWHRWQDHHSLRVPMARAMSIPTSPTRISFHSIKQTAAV

B1: SEQ ID NO: 148 (peptide)
peptide: IVLSLDVPIGLK([AEEA-AEEA-γGlu-C18 diacid])QILLKQERQKK[Aib]REQAETNKRILERV-NH2
modifications: N-terminus assumed
SMILES: CC[C@H](C)[C@H](N)C(=O)N[C@H](C(=O)N[C@@H](CC(C)C)C(=O)N[C@@H](CO)C(=O)N[C@@H](CC(C)C)C(=O)N[C@@H](CC(=O)O)C(=O)N[C@H](C(=O)N1CCC[C@H]1C(=O)N[C@H](C(=O)NCC(=O)N[C@@H](CC(C)C)C(=O)N[C@@H](CCCCNC(=O)COCCOCCNC(=O)COCCOCCNC(=O)CC[C@H](NC(=O)CCCCCCCCCCCCCCCCC(=O)O)C(=O)O)C(=O)N[C@@H](CCC(N)=O)C(=O)N[C@H](C(=O)N[C@@H](CC(C)C)C(=O)N[C@@H](CC(C)C)C(=O)N[C@@H](CCCCN)C(=O)N[C@@H](CCC(N)=O)C(=O)N[C@@H](CCC(=O)O)C(=O)N[C@@H](CCCNC(=N)N)C(=O)N[C@@H](CCC(N)=O)C(=O)N[C@@H](CCCCN)C(=O)N[C@@H](CCCCN)C(=O)NC(C)(C)C(=O)N[C@@H](CCCNC(=N)N)C(=O)N[C@@H](CCC(=O)O)C(=O)N[C@@H](CCC(N)=O)C(=O)N[C@@H](C)C(=O)N[C@@H](CCC(=O)O)C(=O)N[C@H](C(=O)N[C@@H](CC(N)=O)C(=O)N[C@@H](CCCCN)C(=O)N[C@@H](CCCNC(=N)N)C(=O)N[C@H](C(=O)N[C@@H](CC(C)C)C(=O)N[C@@H](CCC(=O)O)C(=O)N[C@@H](CCCNC(=N)N)C(=O)N[C@H](C(N)=O)C(C)C)[C@@H](C)CC)[C@@H](C)O)[C@@H](C)CC)[C@@H](C)CC)C(C)C)C(C)C
B1: the EC50 [nM], 0% HSA was 0.29 nM and the EC50 [nM], 0.1% HSA came out at 14.3 nM.

B2: SEQ ID NO: 147 (peptide)
peptide: IVLSLD[dV]PIGLK([AEEA-AEEA-γGlu-C18 diacid])QILLKQERQKK[Aib]REQAETNKQILAQV-NH2
modifications: N-terminus assumed
SMILES: CC[C@H](C)[C@H](N)C(=O)N[C@H](C(=O)N[C@@H](CC(C)C)C(=O)N[C@@H](CO)C(=O)N[C@@H](CC(C)C)C(=O)N[C@@H](CC(=O)O)C(=O)N[C@@H](C(=O)N1CCC[C@H]1C(=O)N[C@H](C(=O)NCC(=O)N[C@@H](CC(C)C)C(=O)N[C@@H](CCCCNC(=O)COCCOCCNC(=O)COCCOCCNC(=O)CC[C@H](NC(=O)CCCCCCCCCCCCCCCCC(=O)O)C(=O)O)C(=O)N[C@@H](CCC(N)=O)C(=O)N[C@H](C(=O)N[C@@H](CC(C)C)C(=O)N[C@@H](CC(C)C)C(=O)N[C@@H](CCCCN)C(=O)N[C@@H](CCC(N)=O)C(=O)N[C@@H](CCC(=O)O)C(=O)N[C@@H](CCCNC(=N)N)C(=O)N[C@@H](CCC(N)=O)C(=O)N[C@@H](CCCCN)C(=O)N[C@@H](CCCCN)C(=O)NC(C)(C)C(=O)N[C@@H](CCCNC(=N)N)C(=O)N[C@@H](CCC(=O)O)C(=O)N[C@@H](CCC(N)=O)C(=O)N[C@@H](C)C(=O)N[C@@H](CCC(=O)O)C(=O)N[C@H](C(=O)N[C@@H](CC(N)=O)C(=O)N[C@@H](CCCCN)C(=O)N[C@@H](CCC(N)=O)C(=O)N[C@H](C(=O)N[C@@H](CC(C)C)C(=O)N[C@@H](C)C(=O)N[C@@H](CCC(N)=O)C(=O)N[C@H](C(N)=O)C(C)C)[C@@H](C)CC)[C@@H](C)O)[C@@H](C)CC)[C@@H](C)CC)C(C)C)C(C)C
B2 came in with an EC50 [nM], 0% HSA of 0.18 nM and an EC50 [nM], 0.1% HSA of 8.17 nM.

B3: SEQ ID NO: 149 (peptide)
peptide: IVLSLD[dV]PIKLK([AEEA-AEEA-γGlu-C18 diacid])QILLKQERQKK[Aib]REQAETNKRILERV-NH2
modifications: N-terminus assumed
SMILES: CC[C@H](C)[C@H](N)C(=O)N[C@H](C(=O)N[C@@H](CC(C)C)C(=O)N[C@@H](CO)C(=O)N[C@@H](CC(C)C)C(=O)N[C@@H](CC(=O)O)C(=O)N[C@@H](C(=O)N1CCC[C@H]1C(=O)N[C@H](C(=O)N[C@@H](CCCCN)C(=O)N[C@@H](CC(C)C)C(=O)N[C@@H](CCCCNC(=O)COCCOCCNC(=O)COCCOCCNC(=O)CC[C@H](NC(=O)CCCCCCCCCCCCCCCCC(=O)O)C(=O)O)C(=O)N[C@@H](CCC(N)=O)C(=O)N[C@H](C(=O)N[C@@H](CC(C)C)C(=O)N[C@@H](CC(C)C)C(=O)N[C@@H](CCCCN)C(=O)N[C@@H](CCC(N)=O)C(=O)N[C@@H](CCC(=O)O)C(=O)N[C@@H](CCCNC(=N)N)C(=O)N[C@@H](CCC(N)=O)C(=O)N[C@@H](CCCCN)C(=O)N[C@@H](CCCCN)C(=O)NC(C)(C)C(=O)N[C@@H](CCCNC(=N)N)C(=O)N[C@@H](CCC(=O)O)C(=O)N[C@@H](CCC(N)=O)C(=O)N[C@@H](C)C(=O)N[C@@H](CCC(=O)O)C(=O)N[C@H](C(=O)N[C@@H](CC(N)=O)C(=O)N[C@@H](CCCCN)C(=O)N[C@@H](CCCNC(=N)N)C(=O)N[C@H](C(=O)N[C@@H](CC(C)C)C(=O)N[C@@H](CCC(=O)O)C(=O)N[C@@H](CCCNC(=N)N)C(=O)N[C@H](C(N)=O)C(C)C)[C@@H](C)CC)[C@@H](C)O)[C@@H](C)CC)[C@@H](C)CC)C(C)C)C(C)C
In turn, B3 gave an EC50 [nM], 0% HSA of 0.06 nM and an EC50 [nM], 0.1% HSA of 2.54 nM.

B4: SEQ ID NO: 151 (peptide)
peptide: IVLSLD[dV]PIGLK([AEEA-AEEA-γGlu-C18 diacid])QILLKQERQKK[Aib]REQAEKNKRILERV-NH2
modifications: N-terminus assumed
SMILES: CC[C@H](C)[C@H](N)C(=O)N[C@H](C(=O)N[C@@H](CC(C)C)C(=O)N[C@@H](CO)C(=O)N[C@@H](CC(C)C)C(=O)N[C@@H](CC(=O)O)C(=O)N[C@@H](C(=O)N1CCC[C@H]1C(=O)N[C@H](C(=O)NCC(=O)N[C@@H](CC(C)C)C(=O)N[C@@H](CCCCNC(=O)COCCOCCNC(=O)COCCOCCNC(=O)CC[C@H](NC(=O)CCCCCCCCCCCCCCCCC(=O)O)C(=O)O)C(=O)N[C@@H](CCC(N)=O)C(=O)N[C@H](C(=O)N[C@@H](CC(C)C)C(=O)N[C@@H](CC(C)C)C(=O)N[C@@H](CCCCN)C(=O)N[C@@H](CCC(N)=O)C(=O)N[C@@H](CCC(=O)O)C(=O)N[C@@H](CCCNC(=N)N)C(=O)N[C@@H](CCC(N)=O)C(=O)N[C@@H](CCCCN)C(=O)N[C@@H](CCCCN)C(=O)NC(C)(C)C(=O)N[C@@H](CCCNC(=N)N)C(=O)N[C@@H](CCC(=O)O)C(=O)N[C@@H](CCC(N)=O)C(=O)N[C@@H](C)C(=O)N[C@@H](CCC(=O)O)C(=O)N[C@@H](CCCCN)C(=O)N[C@@H](CC(N)=O)C(=O)N[C@@H](CCCCN)C(=O)N[C@@H](CCCNC(=N)N)C(=O)N[C@H](C(=O)N[C@@H](CC(C)C)C(=O)N[C@@H](CCC(=O)O)C(=O)N[C@@H](CCCNC(=N)N)C(=O)N[C@H](C(N)=O)C(C)C)[C@@H](C)CC)[C@@H](C)CC)[C@@H](C)CC)C(C)C)C(C)C
The molecule B4 showed an EC50 [nM], 0% HSA of 0.08 nM and an EC50 [nM], 0.1% HSA of 3.87 nM.

B5: SEQ ID NO: 150 (peptide)
peptide: IVLSLD[dV]PIGLK([AEEA-AEEA-γGlu-C18 diacid])QILLKQERQKK[Aib]RQQAETNKRILERV-NH2
modifications: N-terminus assumed
SMILES: CC[C@H](C)[C@H](N)C(=O)N[C@H](C(=O)N[C@@H](CC(C)C)C(=O)N[C@@H](CO)C(=O)N[C@@H](CC(C)C)C(=O)N[C@@H](CC(=O)O)C(=O)N[C@@H](C(=O)N1CCC[C@H]1C(=O)N[C@H](C(=O)NCC(=O)N[C@@H](CC(C)C)C(=O)N[C@@H](CCCCNC(=O)COCCOCCNC(=O)COCCOCCNC(=O)CC[C@H](NC(=O)CCCCCCCCCCCCCCCCC(=O)O)C(=O)O)C(=O)N[C@@H](CCC(N)=O)C(=O)N[C@H](C(=O)N[C@@H](CC(C)C)C(=O)N[C@@H](CC(C)C)C(=O)N[C@@H](CCCCN)C(=O)N[C@@H](CCC(N)=O)C(=O)N[C@@H](CCC(=O)O)C(=O)N[C@@H](CCCNC(=N)N)C(=O)N[C@@H](CCC(N)=O)C(=O)N[C@@H](CCCCN)C(=O)N[C@@H](CCCCN)C(=O)NC(C)(C)C(=O)N[C@@H](CCCNC(=N)N)C(=O)N[C@@H](CCC(N)=O)C(=O)N[C@@H](CCC(N)=O)C(=O)N[C@@H](C)C(=O)N[C@@H](CCC(=O)O)C(=O)N[C@H](C(=O)N[C@@H](CC(N)=O)C(=O)N[C@@H](CCCCN)C(=O)N[C@@H](CCCNC(=N)N)C(=O)N[C@H](C(=O)N[C@@H](CC(C)C)C(=O)N[C@@H](CCC(=O)O)C(=O)N[C@@H](CCCNC(=N)N)C(=O)N[C@H](C(N)=O)C(C)C)[C@@H](C)CC)[C@@H](C)O)[C@@H](C)CC)[C@@H](C)CC)C(C)C)C(C)C
In turn, B5 yielded an EC50 [nM], 0% HSA of 0.07 nM and an EC50 [nM], 0.1% HSA of 3.99 nM.

B6: SEQ ID NO: 16 (peptide)
peptide: IVLSLDVPIGLK([AEEA-AEEA-γGlu-C18 diacid])QKLLKQQRQRKERQQAEKNARILARV-NH2
modifications: N-terminus assumed
SMILES: CC[C@H](C)[C@H](N)C(=O)N[C@H](C(=O)N[C@@H](CC(C)C)C(=O)N[C@@H](CO)C(=O)N[C@@H](CC(C)C)C(=O)N[C@@H](CC(=O)O)C(=O)N[C@H](C(=O)N1CCC[C@H]1C(=O)N[C@H](C(=O)NCC(=O)N[C@@H](CC(C)C)C(=O)N[C@@H](CCCCNC(=O)COCCOCCNC(=O)COCCOCCNC(=O)CC[C@H](NC(=O)CCCCCCCCCCCCCCCCC(=O)O)C(=O)O)C(=O)N[C@@H](CCC(N)=O)C(=O)N[C@@H](CCCCN)C(=O)N[C@@H](CC(C)C)C(=O)N[C@@H](CC(C)C)C(=O)N[C@@H](CCCCN)C(=O)N[C@@H](CCC(N)=O)C(=O)N[C@@H](CCC(N)=O)C(=O)N[C@@H](CCCNC(=N)N)C(=O)N[C@@H](CCC(N)=O)C(=O)N[C@@H](CCCNC(=N)N)C(=O)N[C@@H](CCCCN)C(=O)N[C@@H](CCC(=O)O)C(=O)N[C@@H](CCCNC(=N)N)C(=O)N[C@@H](CCC(N)=O)C(=O)N[C@@H](CCC(N)=O)C(=O)N[C@@H](C)C(=O)N[C@@H](CCC(=O)O)C(=O)N[C@@H](CCCCN)C(=O)N[C@@H](CC(N)=O)C(=O)N[C@@H](C)C(=O)N[C@@H](CCCNC(=N)N)C(=O)N[C@H](C(=O)N[C@@H](CC(C)C)C(=O)N[C@@H](C)C(=O)N[C@@H](CCCNC(=N)N)C(=O)N[C@H](C(N)=O)C(C)C)[C@@H](C)CC)[C@@H](C)CC)C(C)C)C(C)C
As to B6, the EC50 [nM], 0% HSA was found to be 0.3 nM.
